Reference: patent publication US20090324593A1 (MacroGenics, published 2009)

Molecular target: T1, WNV E-protein domain III (dIII) (West Nile Virus, UniProt Q9Q6P4 580-705)
T1 construct: domain: Domain III; also called the antigen; the receptor
T1 sequence (looked up): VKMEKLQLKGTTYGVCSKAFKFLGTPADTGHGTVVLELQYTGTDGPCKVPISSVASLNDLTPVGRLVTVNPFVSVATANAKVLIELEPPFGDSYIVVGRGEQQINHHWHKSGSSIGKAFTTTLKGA
Experiment: antigen capture ELISA (sheet title: E9 captured E protein DIII), 2.5 ng/well domain III captured by mouse antibody E9, HRP anti-human IgG F(ab')2 detection
Experimental: Protocol for antibody-capture ELISA assay: 2.5 ng/well of dIII was captured on 96-well Maxisorp plates by mouse anti-WNV E-protein antibody E9 at room temperature for 2 hours. A serial of two-fold dilution of conditioned medium of chE16, huE16, huE16HC/ch2B6LC or chE16HC/huE16LC starting from 5 ng/well was added to each well. The plate was incubated at room temperature for 1 hour, then binding was detected by HRP conjugated F(ab′)₂ goat anti human IgG F(ab)′₂ specific secondary antibody (Jackson ImmunoResearch, Inc.) at 1:10,000 dilution. After incubation with the secondary antibody for approximately 45 minutes, the plate was developed using a TMB substrate. After 5 minutes incubation, the reaction was stopped by 1% H₂SO₄. The OD₄₅₀ nm was read by SOFTmax program. Between each step, the plates were washed 3 times with PBS/0.1% Tween20. Plates were blocked by 0.5% BSA in PBS/0.1% Tween 20 for 30 mins at room temperature before adding conditioned medium.
After three days in culture the amount of human IgG expressed was quantitated by ELISA. Binding to WNV E-protein domain III (dIII) was determined by ELISA and antibody-capture ELISA assays as described above.

Row | Binder | EC50 (read off the curve)
1 | Humanized E16 huE16-3.1 (huE16HC T71A / huE16LC) (antibody, V domains shown, also called huE16-3 (T71A)/huE16LC; huE16HC-2 T71A/huE16LC) VH: QVQLVQSGAEVKKPGASVKVSCKASGYTFTDYWIEWVRQAPGQGLEWMGDILCGTGRTRYNEKLKARVTMTADTSTSTAYMELRSLRSDDTAVYYCARSASYGDYADYWGQGTTVTVSS VL: DIVMTQSPDSLAVSLGERATINCKASQDVSTAVAWYQQKPGQPPKLLIYWASTRHTGVPDRFSGSGSGTDFTLTISSLQAEDVAVYYCQQHYTTPLTFGQGTKLEIK | ~0.01 µg/mL
2 | Humanized E16 huE16-2.1 (huE16HC-2 V67A, M69F, T71A / huE16LC) (antibody, V domains shown) VH: QVQLVQSGAEVKKPGASVKVSCKASGYTFTDYWIEWVRQAPGQGLEWMGDILCGTGRTRYNEKLKARATFTADTSTSTAYMELRSLRSDDTAVYYCARSASYGDYADYWGQGTTVTVSS VL: DIVMTQSPDSLAVSLGERATINCKASQDVSTAVAWYQQKPGQPPKLLIYWASTRHTGVPDRFSGSGSGTDFTLTISSLQAEDVAVYYCQQHYTTPLTFGQGTKLEIK | ~0.01 µg/mL
3 | Humanized E16 huE16-2.2 (huE16HC-2 V67A, M69F, T71A / huE16LC-2 Y49S) (antibody, V domains shown) VH: QVQLVQSGAEVKKPGASVKVSCKASGYTFTDYWIEWVRQAPGQGLEWMGDILCGTGRTRYNEKLKARATFTADTSTSTAYMELRSLRSDDTAVYYCARSASYGDYADYWGQGTTVTVSS VL: DIVMTQSPDSLAVSLGERATINCKASQDVSTAVAWYQQKPGQPPKLLISWASTRHTGVPDRFSGSGSGTDFTLTISSLQAEDVAVYYCQQHYTTPLTFGQGTKLEIK | ~0.01 µg/mL
4 | Humanized E16 huE16-3.2 (huE16HC T71A / huE16LC-2 Y49S) (antibody, V domains shown, also called hE16-3.2; huE16-2 (T71A)/huE16LC-2 (Y49S)) VH: QVQLVQSGAEVKKPGASVKVSCKASGYTFTDYWIEWVRQAPGQGLEWMGDILCGTGRTRYNEKLKARVTMTADTSTSTAYMELRSLRSDDTAVYYCARSASYGDYADYWGQGTTVTVSS VL: DIVMTQSPDSLAVSLGERATINCKASQDVSTAVAWYQQKPGQPPKLLISWASTRHTGVPDRFSGSGSGTDFTLTISSLQAEDVAVYYCQQHYTTPLTFGQGTKLEIK | ~0.01 µg/mL
